Laboratory results from patent US20240270821A1, “GIP/GLP1/GCG TRI-RECEPTOR AGONISTS AND USES THEREOF” (priority 2023, published 2024).

B1: Example 598 (peptide)
chain: YXQGTXTSDXXIXLDXKAQXXFIEXLTEGGPSSGEPPPEGTEEE
modifications: non-natural residues; (γGlu)2-C18 diacid on Lys; C-terminal amide; synthetic construct; SITE 2: note = 2-Aminoisobutyric Acid; SITE 6: note = alpha-methyl-2-fluoro-L-phenylalanine; SITE 10: note = 3-(4-Pyridyl)-L-alanine; SITE 11: note = alpha-methyl-L-serine; SITE 13: note = alpha-methyl-leucine; SITE 16: note = L-ornithine; SITE 17: note = Lysine is chemically mo
B2: Example 607 (peptide)
chain: YXQGTXTSDXSILLDKKAQXAFIEYLEEGGPSSGEPPPSGTGE
modifications: Aib, αMeF(2F), 4Pal; acylated K; C-terminal amide; synthetic construct; SITE 2: note = 2-Aminoisobutyric Acid; SITE 6: note = alpha-methyl-2-fluoro-L-phenylalanine; SITE 10: note = 3-(4-Pyridyl)-L-alanine; SITE 17: note = Lysine is chemically modified through conjugation of the epsilon-amino group of the Lysine side chain with (gamma-Glu)2-CO-(CH2)1
B3: Example 610 (peptide)
chain: YXQGTXTSDXSILLDKKAQXAFIEYLEEGGPSSGAPPPSGSEE
modifications: Aib, αMeF(2F), 4Pal; lysine acylated C18 diacid; amide; synthetic construct; SITE 2: note = 2-Aminoisobutyric Acid; SITE 6: note = alpha-methyl-2-fluoro-L-phenylalanine; SITE 10: note = 3-(4-Pyridyl)-L-alanine; SITE 17: note = Lysine is chemically modified through conjugation of the epsilon-amino group of the Lysine side chain with (gamma-Glu)2-CO-(CH2)1
B4: Example 609 (peptide)
chain: YXQGTXTSDXSILLDKKAQXAFIEYLEEGGPSSGAPPPSGTEE
modifications: non-natural residues (Aib, αMeF(2F), 4Pal); lipidated Lys; C-amide; synthetic construct; SITE 2: note = 2-Aminoisobutyric Acid; SITE 6: note = alpha-methyl-2-fluoro-L-phenylalanine; SITE 10: note = 3-(4-Pyridyl)-L-alanine; SITE 17: note = Lysine is chemically modified through conjugation of the epsilon-amino group of the Lysine side chain with (gamma-Glu)2-CO-(CH2)1
B5: Example 608 (peptide)
chain: YXQGTXTSDXSILLDKKAQXAFIEYLEEGGPSSGEPPPSGTEE
modifications: non-natural residues, acylated Lys ((γGlu)2-C18 diacid), C-terminal amide; synthetic construct; SITE 2: note = 2-Aminoisobutyric Acid; SITE 6: note = alpha-methyl-2-fluoro-L-phenylalanine; SITE 10: note = 3-(4-Pyridyl)-L-alanine; SITE 17: note = Lysine is chemically modified through conjugation of the epsilon-amino group of the Lysine side chain with (gamma-Glu)2-CO-(CH2)1
B6: Example 56 (peptide)
chain: YXQGTFTSDFSKXLDKKAQXAFIEYLLEGGPSSGAPPPSEGX
modifications: synthetic construct; SITE 2: note = 2-Aminoisobutyric Acid; SITE 13: note = alpha-methyl-leucine; SITE 17: note = Lysine is chemically modified through conjugation of the epsilon-amino group of the Lysine side chain with (2-[2-(2-Amino-ethoxy)-ethoxy]-acetyl)-(gamma-Glu)-CO-(CH2) 16-CO2H; SITE 20: n
B7: Example 597 (peptide)
chain: YXQGTXTSDXXIXLDXKAQXXFIEXLTEGGPSSGEPPPEGTEE
modifications: acylated Lys (γGlu)2-C18 diacid; non-natural residues; C-terminal amide; synthetic construct; SITE 2: note = 2-Aminoisobutyric Acid; SITE 6: note = alpha-methyl-2-fluoro-L-phenylalanine; SITE 10: note = 3-(4-Pyridyl)-L-alanine; SITE 11: note = alpha-methyl-L-serine; SITE 13: note = alpha-methyl-leucine; SITE 16: note = L-ornithine; SITE 17: note = Lysine is chemically mo
B8: Example 603 (peptide)
chain: YXQGTXTSDXXILLDXKAQXXFIEYLIEGGPSSGEPPPEGSEE
modifications: non-natural residues, acylated Lys ((γGlu)2-C18 diacid), C-terminal amide; synthetic construct; SITE 2: note = 2-Aminoisobutyric Acid; SITE 6: note = alpha-methyl-2-fluoro-L-phenylalanine; SITE 10: note = 3-(4-Pyridyl)-L-alanine; SITE 11: note = alpha-methyl-L-serine; SITE 16: note = L-ornithine; SITE 17: note = Lysine is chemically modified through conjugation of the epsi
B9: Example 604 (peptide)
chain: YXQGTXTSDXXILLDXKAQXXFIEYLIEGGPSSGEPPPEGAEE
modifications: non-natural residues; Lys acylated C18 diacid; C-terminal amide; synthetic construct; SITE 2: note = 2-Aminoisobutyric Acid; SITE 6: note = alpha-methyl-2-fluoro-L-phenylalanine; SITE 10: note = 3-(4-Pyridyl)-L-alanine; SITE 11: note = alpha-methyl-L-serine; SITE 16: note = L-ornithine; SITE 17: note = Lysine is chemically modified through conjugation of the epsi
B10: Example 606 (peptide)
chain: YXQGTXTSDXXILLDXKAQXXFIEYLIEGGPSSGEPPPEGEEE
modifications: Lys acylated (γ-Glu)2-C18 diacid; non-natural residues; C-terminal amide; synthetic construct; SITE 2: note = 2-Aminoisobutyric Acid; SITE 6: note = alpha-methyl-2-fluoro-L-phenylalanine; SITE 10: note = 3-(4-Pyridyl)-L-alanine; SITE 11: note = alpha-methyl-L-serine; SITE 16: note = L-ornithine; SITE 17: note = Lysine is chemically modified through conjugation of the epsi
B11: Example 605 (peptide)
chain: YXQGTXTSDXXILLDXKAQXXFIEYLIEGGPSSGEPPPEGGEE
modifications: Aib, αMeF(2F), 4Pal, αMeS, Orn; acylated lysine; amide; synthetic construct; SITE 2: note = 2-Aminoisobutyric Acid; SITE 6: note = alpha-methyl-2-fluoro-L-phenylalanine; SITE 10: note = 3-(4-Pyridyl)-L-alanine; SITE 11: note = alpha-methyl-L-serine; SITE 16: note = L-ornithine; SITE 17: note = Lysine is chemically modified through conjugation of the epsi

Assays:
Assay in all cases: cell-based or functional assay
hGLP-1R = hGLP-1R (Homo sapiens, UniProt P43220)
Sequence of hGLP-1R (P43220 24-463): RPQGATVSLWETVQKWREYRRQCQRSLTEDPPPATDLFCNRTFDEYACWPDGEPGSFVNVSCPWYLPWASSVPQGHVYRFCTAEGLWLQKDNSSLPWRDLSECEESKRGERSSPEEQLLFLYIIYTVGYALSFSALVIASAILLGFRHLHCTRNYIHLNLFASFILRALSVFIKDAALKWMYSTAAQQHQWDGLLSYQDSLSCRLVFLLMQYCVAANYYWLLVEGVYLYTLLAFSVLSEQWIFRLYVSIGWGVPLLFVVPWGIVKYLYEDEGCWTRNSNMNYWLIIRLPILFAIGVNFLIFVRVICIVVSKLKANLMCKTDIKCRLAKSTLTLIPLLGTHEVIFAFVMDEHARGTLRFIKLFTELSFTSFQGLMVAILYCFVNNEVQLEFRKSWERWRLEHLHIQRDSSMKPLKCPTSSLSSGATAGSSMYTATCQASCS

[1] = target: T1, human GIP receptor (human) (UniProt P48546)
T1 sequence (looked up): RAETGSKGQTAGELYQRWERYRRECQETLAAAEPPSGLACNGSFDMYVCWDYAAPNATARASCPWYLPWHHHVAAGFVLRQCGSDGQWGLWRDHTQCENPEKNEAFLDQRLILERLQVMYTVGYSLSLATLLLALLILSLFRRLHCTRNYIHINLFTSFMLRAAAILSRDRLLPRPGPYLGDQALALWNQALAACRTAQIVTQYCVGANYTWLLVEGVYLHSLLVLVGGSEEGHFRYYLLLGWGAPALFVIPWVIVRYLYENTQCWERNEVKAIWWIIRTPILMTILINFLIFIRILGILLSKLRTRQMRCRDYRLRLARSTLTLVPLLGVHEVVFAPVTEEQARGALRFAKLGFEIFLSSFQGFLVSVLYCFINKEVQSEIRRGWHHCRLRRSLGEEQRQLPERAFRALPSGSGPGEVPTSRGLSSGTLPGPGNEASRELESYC

[2] = target: human glucagon receptor (human) (UniProt P47871)
Sequence of human glucagon receptor (human) (P47871 26-477): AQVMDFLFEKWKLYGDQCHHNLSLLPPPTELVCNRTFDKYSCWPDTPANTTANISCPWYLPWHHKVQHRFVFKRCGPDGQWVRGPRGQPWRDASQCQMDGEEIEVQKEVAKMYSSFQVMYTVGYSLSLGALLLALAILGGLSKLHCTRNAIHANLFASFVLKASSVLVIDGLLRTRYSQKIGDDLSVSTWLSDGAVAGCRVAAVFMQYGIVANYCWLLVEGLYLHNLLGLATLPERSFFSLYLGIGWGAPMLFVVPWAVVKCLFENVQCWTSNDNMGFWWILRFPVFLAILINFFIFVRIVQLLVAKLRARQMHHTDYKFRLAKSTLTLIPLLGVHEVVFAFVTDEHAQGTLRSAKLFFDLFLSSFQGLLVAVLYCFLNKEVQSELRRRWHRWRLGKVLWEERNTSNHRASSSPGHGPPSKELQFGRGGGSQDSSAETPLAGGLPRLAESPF

Binder | Relative cAMP EC50 (hGLP-1R) [nM] | cAMP Rel EC50 (in the presence of 1% HSA) (hGLP-1R) [nM] | Relative cAMP EC50 [1] [nM] | cAMP Rel EC50 (in the presence of 1% HSA) [1] [nM] | Relative cAMP EC50 [2] [nM] | cAMP Rel EC50 (in the presence of 1% HSA) [2] [nM] | cAMP Rel EC50, nM (in the presence of 1% HSA) (hGLP-1R) [nM] | cAMP Rel EC50, nM (in the presence of 1% HSA) [1] [nM] | cAMP Rel EC50, nM (in the presence of 1% HSA) [2] [nM]
B1 | 0.886 | 47.3 | 0.0927 | 3.49 | 8.79 | 457 |  |  | 
B2 | 1.15 | 139 | 0.0879 | 6.63 | 8.91 | 565 |  |  | 
B3 | 1.66 | 130 | 0.133 | 7.02 | 5.75 | 536 |  |  | 
B4 | 1.07 | 121 | 0.0784 | 6.19 | 6.46 | 647 |  |  | 
B5 | 1.87 | 201 | 0.124 | 8.51 | 7.82 | 669 |  |  | 
B6 | 4.07 |  | 0.315 |  | 2.8 |  | 167 | 30.3 | 265
B7 | 0.6 | 36.4 | 0.0643 | 2.38 | 5.2 | 329 |  |  | 
B8 | 0.688 | 49.5 | 0.102 | 4.99 | 5.43 | 419 |  |  | 
B9 | 0.705 | 51 | 0.161 | 4.84 | 5.5 | 427 |  |  | 
B10 | 0.786 | 53.1 | 0.17 | 5.69 | 5.01 | 474 |  |  | 
B11 | 0.795 | 56.2 | 0.132 | 6.69 | 5.49 | 353 |  |  | 
